Laboratory results: the DeepSol protein solubility set

Assay: soluble on expression in E. coli; label from the status in PepcDB or PDB records

| Sequence | soluble on expression in E. coli |
| --- | --- |
| MFALVLFVCYLDGGCEDIVVDIYDTEQHCLYSMDDQRIRHGGCFPVEDFIDGFWRPAQQYSDFLEHHHHHH | not soluble |
| MIENAKENSQRVELKDRIIETASEAFTTHGIKSITMDDIAASLGISKRTLYEVFQDKESLLTQCILKRQEEMNAFLAETLANSKNVLEVILVCYQRSIETFHRTNKRFFEDIKKYPKVHSLLKNYRERDSDSTIEFFKMGIKQGIFRDDVNFAIVNLLVHEQLDLLMNTDICNKYSFLEVYEAIMFTYIRGISTEKGAKVLEDFITEYRKQRIH | not soluble |
| MIKLENEVLLVEMKTAGAELTRIFHKDTGLEYLWNADSKFWGRHSPVLFPTVGRLVEDTYLVDGKPYHLGQHGFARDRDFQVVEQTEKSVRFELDADEDSLAVYPYKFKLSIIYTIEKNTVAVSYEVENTDNKRIYFSIGAHPAFNLPLTDGTTFEDYYLDFGTEENLETLCLEGPYRSGEIKKVVDEAARYLPLNYDLFKNDALIFEALKQKEMTIKSDKTPHFVKVSFPEFPFVGVWTAKAGTPFLCIEPWYGIADGAGESVELRDKAGIEHLEPEAVFASEYEITVGLEHHHHHH | soluble |
| MPNSEPASLLELFNSIATQGELVRSLKAGNASKDEIDSAVKMLVSLKMSYKAAAGEDYKADCPPGNPAPTSNHGPDATEAEEDFVDPWTVQTSSAKGIDYDKLIVRFGSSKIDKELINRIERATGQRPHHFLRRGIFFSHRDMNQVLDAYENKKPFYLYTGRGPSSEAMHVGHLIPFIFTKWLQDVFNVPLVIQMTDDEKYLWKDLTLDQAYGDAVENAKDIIACGFDINKTFIFSDLDYMGMSSGFYKNVVKIQKHVTFNQVKGIFGFTDSDCIGKISFPAIQAAPSFSNSFPQIFRDRTDIQCLIPCAIDQDPYFRMTRDVAPRIGYPKPALLHSTFFPALQGAQTKMSASDPNSSIFLTDTAKQIKTKVNKHAFSGGRDTIEEHRQFGGNCDVDVSFMYLTFFLEDDDKLEQIRKDYTSGAMLTGELKKALIEVLQPLIAEHQARRKEVTDEIVKEFMTPRKLAAALEHHHHHH | soluble |
| MDQVEIRTHTALHVVKGAVRKVLGAKWTASTYVNSNHGRLTVKFERKPSDQEMDKVFELANEKVRKNLPIIIEVLPREEAERKYGDEIYDLFLISAEVRELSIVVIPDWSINACNKQHTKFTSEIGEIIKDYWRYRNSKQLLEISFDIKC | soluble |
| MGSDKIHHHHHHMAGNTIGQLFRVTTFGESHGLALGCIVDGVPPGIPLTEADLQHDLDRRRPGTSRYTTQRREPDQVKILSGVFEGVTTGTSIGLLIENTDQRSQDYSAIKDVFRPGHADYTYEQKYGLRDYRGGGRSSARETAMRVAAGAIAKKYLAEKFGIEIRGCLTQMGDIPLDIKDWSQVEQNPFFCPDPDKIDALDELMRALKKEGDSIGAKVTVVASGVPAGLGEPVFDRLDADIAHALMSINAVKGVEIGDGFDVVALRGSQNRDEITKDGFQSNHAGGILGGISSGQQIIAHMALKPTSSITVPGRTINRFGEEVEMITKGRHDPCVGIRAVPIAEAMLAIVLMDHLLRQRAQNADVKTDIPRW | not soluble |
| MGSDKIHHHHHHDSDIDPVYVLSGDSMELMGGPNEVILTPDNPQALALTVYWSGDGRLALSDTLLQAPVNVAEITIQFSKDEHFTAPLNIAVDKNIHSRQFLCEELNSLLDRLGYEANEKAPLWIRMRSALAANIAPEYSNVMEVLVQSYRIELVLAQVLDKDWKNTSMTLASPAEDGIYKGFMGVNGWENWWLREANNVMWGNLGEEGKTFYASSEDSHWNFWFPNPSGCYYTTVNTVEGWWSALHVASLSVSGDVTGEMAYNKQSNQWTLPVNLATQSTLTISVSGKGSLYNRETTDIGPAIEQTVAFGGNSQNLLFGESADNISVTMPAGENLLVLDLSNPLQFTIGIGEDVPQPEVSQYLYFSGITNWEGFDDYLTLYDEAGLCYGGAHWIDSEWGYRAYTEQAWEPAYNAADGSTDLSGTLILAESKDNIPAPAQGLYVMDFNMKSLTYELTQVQTVTFTGLNDNWSESPMTQSAENPEIFTAEFIKEKKSPWGVKVLINNNWNLFFGGGSGILHLKHSESSAGFDGDDELEIGKTYVLTVDLGHQTYSYSLK | not soluble |
| MGNIMSASFAPECTDLKTKYDSCFNEWYSEKFLKGKSVENECSKQWYAYTTCVNAALVKQGIKPALDEAREEAPFENGGKLKEVDK | soluble |
| NKNFTWTSNFNLTYQRALVDKLPEGKDIQYGDGEMYLHREGESMYTFYLPEWKGVNPETGLGEFWLDPEDHSKGVVNDYSEAGKGIVGKALPDVIGGFSNTFTYKDFDLSFLITYQFGGDMFDYPGYFSHHDGVRIGSMNLSEDVAGNYWKNPGDKVDNPMPIYANPYRWDRFSSRTIKSTDNIRLREMTVGYTLPVLKKHISNFRIYFRANNLAMLWSKTKNIDPDVAINGYRQADTPALRSCVFGINIKL | not soluble |
| MAHHHHHHMQPLLRVPRAVHPHVERPLLGYLPPPVSHFSTKRNNCTGYDHPRGAPPQLNKTYHSQANFRDTKMEFCQVDLDEFCYKQFDSTKKSCSFIPYDKNEFLDKVNELIRQKKIKVVPGYAGFCKHIFVENFTEATVETIEINNKNRDLIKTDYISRRDNELPVLIRWISKKDVKDIIKAKYLDLILYSREQIEKENKETKTVPNRKSNCLYSIICIKPQNVDYELPMTPITMLRNTLISEGGSGINLNRDKYLESVKYWRHHVSIIDN | soluble |
| MGSDKIHHHHHHMKIGFIGTGNMGTILIESFIESKAADPSNMTITNRTIEKALHIKNRYNSINVTESLEKLVSENEMIFICVKPLDIYPLLARALPYLRKDHILISITSPVQTEQLEQYVPCQVARVIPSITNRALAGVSLVTFGTSCGESAKAKINELMQHISHPLQIESDITRVASDIVSCGPAFMSYLIQRFIDAAVSETSVSKQDAILMCKEMLVGMGKLLETELYTLPALQEKVCVKGGVTGEGIKALESGVQDMFHRVFQNTHMKYEEDISAVKKQFHV | not soluble |
| MGSDKIHHHHHHMKTQVLYGKSEIEINVPDDSTIIEPQNIDAIQDYESTIKNVLRNPTNSKPLKEMVNSNDIVSIVISDITRPTPNHILVPLLIEELNHVPRENFVIINGTGTHRDQTRDELIQMLGEDIVNSVKIVHNHCSEKESLAKVGHSQYGCDVYLNKAYVESDFKIVTGFIEPHFFAGFSGGPKGIMPGIAGLETIQTFHNAKMIGDPRSTWGNLEDNPVQDMAREVNRMCKPDFLLNVALNKSKEITAAFAGEIFDTHKEGCAYVKDHAMFKCDQRFDIVIASNSGYPLDQNLYQTVKGMSAASKVVKKDGHIIMVSECADGFPDHGKFAEIFKMADTPQGILELIHNPNFKEVDQWQVQKQASIQTFANVHVYSELTDQQLKDSMLIPTSNIEHTIQELEHRYGRKLTIGVMPQGPLTIPYVEDKE | not soluble |
| MGSDKIHHHHHHMQPRLVIAGTHSGVGKTTVTLGLMAAFVEKGNIVQGFKCGPDYIDPSYHRAVTKRASRNLDSWMVSEDVVNDIFIEGCNGADLSIIEGVMGFYDGKASTSDKGSTADISLLLQAPVLLVVDISGMARSAAAVVKGFQQLNEKVKIAGVILNGAGSERHAEMCSEAIKEACGIPALGYLKKGDVPSIPERHLGLVPALERGEHDSLFSQLAAVVSRQFDLERIERLALEASALSRRTNLFQQTKRPSVVKIAVAYDAAFHFYYEENFTLLRQAGAELVYFSPLRGEDLPSHCDGLYLGGGFPEEFADELSQWIKDHPQLKKRVQSGLPTLAECGGYMFLGEQLTTTKGKTVEMAGVIPMVVQMENKLVSLGYRDVTPLDDSFLLSKGQQIRGHEFHYSKAVYTETERPAYFVKGLFGEGKEGYMSDHLLAGYTHLHFASEPAVATQWVKACEVYKNRRLHRGQVSQ | not soluble |
| MNNETSGSRDMILKHFDSTQNNQNSVKLEHESSDNNESSGSQNFVFNFLMSQLQNMGPVEIKQEVEAKMLDDIEDEYTDNNYNEGYSKMDTDGDLEWEEEFKKLNKDPSKMDKREQERHRQMAKNREYARKCVQKKKDQRKHAEIRSNQIKKRIQLLKNKTAIKEKNANFAVDLRKMMSEIGVERLKLEYENEKMELNKKFAEMFAQDETVNLNFHRLASAREEFEKAAEDLRLKNGVIGTLGSRKIRAKQQMEWRQHLYQISAHEHEHHRETKLAELADEYVKQTVPKAAPLVTSIPKDMLDQLIKNNKTLDLEELCRFVADNLCLLQNDNDDKESVVK | not soluble |
| MGSDKIHHHHHHRDMEIGDSGNVEIEMGEAAFVLKTSLSSLETKSLSDAGTLPASMDEAEINNCTLIFFEGTQVSSIMEGLFVNKENYIVKTKDGTKDDWAKVILKVKKPSPYSVMVIANSSKSFAGCQSENNIKDIIQDDKDALVKVGKMDISFDTDFAGYPTIAEALGKPLEIGAIPLSQLTARIELAEFNVSGFQGASVKEKVTVTGVDLLNLNPESYTINEQTHKNATYLSESKTCNVEVYNGVSDLPSTYSFVDNKNLLSFYSFRNLAKAESDQVKMQVRFKIGNSNEERTTRPFVINKEGNILHGVKSGYVYRLVVNMTIIGDKVETELLCYTRDWLNNTISIPMEDN | not soluble |
| MAEDIEEILAEIDGSQIEEYQKFFDAFDRGKQGYIMATQIGQIMHGMEQDFDEKTLRKLIRKFDADGSGKLEFDEFCALVYTVANTVDKETLEKELREAFRLFDKEGNGYISRPTLKALLKEIADDLTDQQLEEAVDEIDEDGSGKIEFEEFWELMAGESD | not soluble |
| MVFGENALVLKHLGSNTKIHFNAFDALAGWKQEGLPPVEVPAAAQWKFRSKPSQQVILDYDYTFTTPYCGSEVVEKDKETVEAKANPKGEATLQWENCEDQIDLAALSLKEPILFYDEVVLYEDELADNGVSLLTVKVRVMPSSWFLLLRFWLRVDGVLMRLRETRMHYRFGEDEAPTVLRENCWREATFQSLSAKGYPVDLAVWSDPSSISQRLPVIKHTTQKLKIPSKV | not soluble |
| TCCHGHGHGHDHGHRHAPRPAVAAIGTLAGNAELRWSDLRIEAMDCPTEERLIRDALGRQPAVESLEFNLMQRLLRVQHRFDSVEPLQKLIAGLGMQAVPLDAGENTDGPSQAPA | not soluble |
| GSPREKVAMEYLQSASRVLTRSQLRDVVASSHLLQSEFMEIPMNFVDPKEIDIPRHGTKNRYKTILPNPLSRVCLRPKNITDSLSTYINANYIRGYSGKEKAFIATQGPMINTVNDFWQMVWQEDSPVIVMITKLKEKNEKCVLYWPEKRGIYGKVEVLVTGVTECDNYTIRNLVLKQGSHTQHVKHYWYTSWPDHKTPDSAQPLLQLMLDVEEDRLASEGRGPVVVHCSAGIGRTGCFIATSIGCQQLKEEGVVDALSIVCQLRVDRGGMVQTSEQYEFVHHALCLFESRLSPETV | soluble |
| MGSDKIHHHHHHMTKPMHTPPLVPPQAWEAAREQLLVKEKALTRARDALAAERRQMPWMAVEKEYAFEGPEGRVSLVDLFEGRRQLIVYRAFFEPGVFGWPDHACRGCSMVADQVAHLAHLNARDTTLVFVSRAPQADIARLKARMGWQIPWFTVTDSFDADFGVDEWHGTNVFYRDGDRVFRTYFINNRGDEQMGSTWNYLDITPLGRQEVWEDSPEGYPQTPTYKWWNWHDSYVKDAEPDKKWVEVSDAGEAAFRNQD | not soluble |
| MGSDKIHHHHHHMKQLPLDIIPPPPTLSNFVTGRNAELLQTLDNLLMMRKHERFVYIWGGTGCGKSHLLQGVASACKRNDMNTLYFACGERTSFANGSEADCVMVDDVDRLGADAQIGLFHLYNRIRDEGQAFLLVSGSVAPTQLKLRADLLTRLAWGLVYEVHELTDEEKMEAMKSHASSRGLALPQEVCDYLLRHERRDLTSLMAKLNALDKYSLASHRKITVPLVRELLQAAS | not soluble |
| SHMTDDKKKGKFIVFEGLDRSGKSTQSKLLVEYLKNNNVEVKHLYFPNRETGIGQIISKYLKMENSMSNETIHLLFSANRWEHMNEIKSLLLKGIWVVCDRYAYSGVAYSSGALNLNKTWCMNPDQGLIKPDVVFYLNVPPNYAQNRSDYGEEIYEKVETQKKIYETYKHFAHEDYWINIDATRKIEDIHNDIVKEVTKIKVEPEEFNFLWS | soluble |
